Experiment [1] deals with T1, human CD3e/g antigen (ACRO, catalog number CDG-H52W5) (human, UniProt P07766 23-126; P09693 23-116).
T1 construct: Bought reagent used as the Biacore analyte; also called hCD3e/g
Nature of the experiment: SPR (Biacore 8K), antibody captured via anti-human Fc. In outline: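 Anti-human IgG (Fc) antibody amine-coupled on CM5 chip captures CD3 antibodies; antigen injected at a concentration series. Association and dissociation curves fitted kinetically to give equilibrium dissociation constant.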
In general terms: Surface plasmon resonance follows binding to a sensor surface in real time, without labels.

Experiment [2] deals with T2, CD3 on Jurkat cells (human).
T2 construct: native, on the surface of Jurkat cells; The sheets print only 'Jurkat'; also called human CD3; TCR/CD3 complex on the human T cell line Jurkat
The experiment in a line: FACS on Jurkat cells, Alexa 488 secondary antibody, MFI [b]. On the procedure:
(§1) Jurkat cells were amplificatorily cultured to 3×10⁶/ml in a T-175 cell culture flask, the culture medium was removed by centrifugation, and the cells were washed twice with PBS buffer (purchased from Invitrogen). After cell counting, the cells were diluted to 2×10⁶ cells/ml with PBS buffer, added with 1% BSA blocking solution, where the percentage was a mass percentage, incubated on ice for 30 minutes, and then washed twice with PBS buffer by centrifugation. The collected cells were suspended to 2×10⁶ cells/mL with FACS buffer (PBS+1% BSA, where the percentage was a mass percentage), and added to a 96-well FACS reaction plate at 100 μl per well, and samples of the purified CD3 antibodies obtained in Example 4 to be tested were added at 100 μl per well, and incubated at 4° C. for 2 hours. The plate was washed twice with FACS buffer by centrifugation, added with 100 μl per well of fluorescent (Alexa 488) labeled secondary antibody (purchased from Jackson), and incubated at 4° C. for 1 hour. After washing 3 times by centrifugation with FACS buffer, the cells were suspended with 100 μl of FACS buffer, and detected and analyzed using BD FACS LSRFortessa (purchased from BD). The results are shown in FIG. 5, where the IgG control is human IgG1 (hIgG).

In experiment [3] the target is T2, CD3 on Jurkat cells. Nature of the experiment: FACS on Jurkat cells, Alexa 488 secondary antibody, MFI [a]. On the procedure: as §1
The target of experiment [4] is T2, CD3 on Jurkat cells. The experiment in a line: FACS on Jurkat cells, Alexa 488 secondary antibody, MFI [d]. On the procedure:
as §1

The target in experiment [5] is T2, CD3 on Jurkat cells. The experiment in a line: FACS on Jurkat cells, Alexa 488 secondary antibody, MFI [c]. How it is done: as §1

Positions count from the first letter of the chain named.

B1: CAb007 (antibody, V domains shown)
VH: QVQLQQSGPELVKPGASVKISCKASGSTFTDNYIHWVKQRPGQGLEWIGWIYPGSVNIKYNEKFKDKATLTADTSSTTAYMQLSSLSSEDSAIYYCARDISRYYFDYWGQGTTLTVSS
VL: DIVMSQSPSSLAVSAGERVTMNCKSSQSLLNSRTRKNYLAWYQQKPGQSPKLLIYWASTRESGVPDRFTGSGSGTDFTLTISSVQAEDLAVYYCKQSFILRTFGGGTKLAIK
notes: Chimeric: mouse variable regions linked to human light and heavy constant regions; constant regions not specified
On to B1, for which, in experiment [1], the equilibrium dissociation constant (Kd) (as a rule, the constant that tells how readily two partners part at equilibrium) was determined as 12.1 nM; the koff – broadly, the first-order rate constant of dissociation – was 0.00532 s⁻¹; the kon (as a rule, the second-order rate constant of association) was determined as 438000 M⁻¹ s⁻¹. For the same molecule, in the experiment with CD3 on Jurkat cells [2], the EC50 (read off the curve) – broadly, the concentration needed to bring the measured effect to its halfway point – is roughly 0.1 nM.

B2: CAb001 (antibody, V domains shown)
VH: QVQLQQSGPELVKPGASVKISCKASGYSFTNYYMHWVKQRPGQGLEWIGWTYPGNNNIKYNEKFKGKATLTADTSSSTAYMQLSSLTSEDSAVYYCARDGYGYYFFDYWGQGIILTVSS
VL: B1 VL with R18K, N22S, S32N, V91I, F98Y, I99T
notes: as for B1
In experiment [1], B2 returned a Kd of 23.1 nM, a koff of 0.00616 s⁻¹ and an on-rate (kon) of 267000 M⁻¹ s⁻¹. Also, the “EC50 (read off the curve)” value in the experiment with CD3 on Jurkat cells [3] was roughly 0.3 nM.

B3: CAb008 (antibody, V domains shown)
VH: QVQLQQSGAELARPGASVKMSCKTSGYTFTDYTVNWVKQRPGQGLEWIGYINPFNSYTKYNQKFKDKATLTADKSSSTAYMQLSSLTSEDSAVYFCANSVSTYWGQGTTLTVSS
VL: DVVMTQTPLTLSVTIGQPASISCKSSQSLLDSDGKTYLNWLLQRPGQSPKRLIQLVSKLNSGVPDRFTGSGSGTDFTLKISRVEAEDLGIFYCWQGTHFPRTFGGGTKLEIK
notes: as for B1
B3: in experiment [1], the Kd stood at 21.2 nM, the off-rate constant (koff) came out at 0.00372 s⁻¹ and the kon was determined as 176000 M⁻¹ s⁻¹. Further, the “EC50 (read off the curve)” value with CD3 on Jurkat cells [4] was roughly 3 nM.

B4: hAb008-26 (antibody, V domains shown)
VH: QVQLVQSGAEVKKPGASVKVSCKASGYTFTDYTVNWVRQAPGQRLEWIGYINPFNSYTKYNQKFKDRATITADTSASTAYMELSSLRSEDTAVYFCANSVSTYWGQGTTVTVSS
VL: DVVMTQSPLSLPVTLGQPASISCKSSQSLLDSDGKTYLNWLQQRPGQSPRRLIQLVSKLNSGVPDRFSGSGSGTDFTLKISRVEAEDVGVFYCWQGTHFPRTFGGGTKLEIK
notes: Humanized; constant regions not specified
In experiment [1], B4 returned a Kd of 18.1 nM, a koff of 0.00482 s⁻¹ and an association rate constant (kon) of 266000 M⁻¹ s⁻¹. Further, the “EC50 (read off the curve)” value with CD3 on Jurkat cells [5] is roughly 2 nM.

B5: hAb001-21 (antibody, V domains shown)
VH: QVQLVQSGAEVKKPGASVKVSCKASGYSFTNYYMHWVRQAPGQRLEWIGWTYPGNNNIKYNEKFKGRVTITADTSASTAYMELSSLRSEDTAVYYCARDGYGYYFFDYWGQGTLVTVSS
VL: DIVMTQSPDSLAVSLGERATINCKSSQSLLNNRTRKNYLAWYQQKPGQPPKLLIYWASTRESGVPDRFSGSGSGTDFTLTISSLQAEDVAVYYCKQSYTLRTFGGGTKLEIK
notes: as for B4
In experiment [1], B5 came in with a Kd of 16.8 nM, a koff of 0.00669 s⁻¹ and a kon of 398000 M⁻¹ s⁻¹. The “EC50 (read off the curve)” value in the experiment with CD3 on Jurkat cells [3] is roughly 0.3 nM.

B6: hAb001-23 (antibody, V domains shown)
VH: B5 VH
VL: B5 VL with I21M, N22S
notes: as for B4
B6: in experiment [1], the equilibrium dissociation constant (Kd) was found to be 17.4 nM, the off-rate (koff) came to 0.00696 s⁻¹ and the on-rate (kon) is 401000 M⁻¹ s⁻¹. The “EC50 (read off the curve)” value with CD3 on Jurkat cells [3] is roughly 0.3 nM.

B7: hAb001-27 (antibody, V domains shown)
VH: B5 VH with V68A
VL: B5 VL with I21M, N22S
notes: as for B4
As to B7, in experiment [1], the equilibrium dissociation constant (Kd) was determined as 21 nM, the dissociation rate constant (koff) is 0.00823 s⁻¹ and the kon amounted to 391000 M⁻¹ s⁻¹. In addition, in the experiment with CD3 on Jurkat cells [3], the “EC50 (read off the curve)” value was roughly 0.3 nM.

B8: hAb001-26 (antibody, V domains shown)
VH: B5 VH with V68A
VL: B5 VL with S69T
notes: as for B4
Turning to B8, in experiment [1], the Kd was 17.4 nM, the koff was 0.00673 s⁻¹ and the on-rate constant (kon) turned out to be 386000 M⁻¹ s⁻¹. Besides, the 50% effective concentration (EC50 (read off the curve)) in the experiment with CD3 on Jurkat cells [3] was roughly 0.3 nM.

B9: hAb001-28 (antibody, V domains shown)
VH: B5 VH with V68A
VL: B5 VL with I21M, N22S, S69T
notes: as for B4
In experiment [1], B9 came in with a Kd of 20.4 nM, a koff of 0.00745 s⁻¹ and an association rate constant (kon) of 365000 M⁻¹ s⁻¹. The concentration giving a half-maximal response (EC50 (read off the curve)) with CD3 on Jurkat cells [3] is roughly 0.3 nM.

B10: hAb001-22 (antibody, V domains shown)
VH: B5 VH
VL: B5 VL with S69T
notes: as for B4
With B10, in experiment [1], the Kd worked out at 20.4 nM, the off-rate constant (koff) was determined as 0.00848 s⁻¹ and the kon was 416000 M⁻¹ s⁻¹. In addition, the “EC50 (read off the curve)” value with CD3 on Jurkat cells [3] was roughly 0.3 nM.

Source of the values: patent publication US20250346668A1 (GENOR BIOPHARMA, published 2025).
